Substrate in the data set: CC(C)C[C@H](NC(=O)[C@H](CO)NC(=O)[C@H](C)NC(=O)[C@H](CCCNC(=N)N)NC(=O)[C@H](CCCNC(=N)N)NC(=O)[C@@H](N)CC(C)C)C(=O)NCC(=O)O
Nature of the data set: Michaelis-Menten substrate titration (Km) by real-time Eu(III) luminescence. The settings on record: ATP, Mg2+. Format: biochemical, Homo sapiens.

These results are taken from paper PMC6540902, “A simple, robust, universal assay for real-time enzyme monitoring by signalling changes in nucleoside phosphate anion concentration using a europium(III)-based anion receptor” (Chemical Science, 2019).

B1: Aurora A kinase (AurA) (Homo sapiens) (protein)
chain: MDRSKENCISGPVKATAPVGGPKRVLVTQQFPCQNPLPVNSGQAQRVLCPSNSSQRIPLQAQKLVSSHKPVQNQKQKQLQATSVPHPVSRPLNNTQKSKQPLPSAPENNPEEELASKQKNEESKKRQWALEDFEIGRPLGKGKFGNVYLAREKQSKFILALKVLFKAQLEKAGVEHQLRREVEIQSHLRHPNILRLYGYFHDATRVYLILEYAPLGTVYRELQKLSKFDEQRTATYITELANALSYCHSKRVIHRDIKPENLLLGSAGELKIADFGWSVHAPSSRRTTLCGTLDYLPPEMIEGRMHDEKVDLWSLGVLCYEFLVGKPPFEANTYQETYKRISRVEFTFPDFVTEGARDLISRLLKHNPSQRPMLREVLEHPWITANSSKPSNCQNKESASKQS
A word on the Km: it is the substrate concentration at which the rate is half of its maximum. In the case of B1, the Km came out at 176 ± 29 µM.
